# Data taken from patent publication KR20240094169A (dated 2024).
# T1: BCMA (B-cell maturation antigen) expressed on multiple myeloma H929 cells (UniProt Q02223 1-184, limits assumed)
# T1 construct: whole, on cells; also called TNFRSF17; CD269
# T1 sequence (looked up): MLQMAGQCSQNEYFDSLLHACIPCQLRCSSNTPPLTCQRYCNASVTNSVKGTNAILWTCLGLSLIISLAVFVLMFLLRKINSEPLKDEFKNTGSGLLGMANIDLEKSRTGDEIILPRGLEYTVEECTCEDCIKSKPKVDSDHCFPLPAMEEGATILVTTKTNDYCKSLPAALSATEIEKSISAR
# Molecular target: T1, BCMA (B-cell maturation antigen) …
# Experiment: flow cytometry on H929 cells, 1 ㎍ sdAb, PE-conjugated secondary antibody
row,Binder,binding result
1,"항-BCMA sdAb No.7 (VHH, Camel-derived single-domain antibody from a phage library; also called anti-BCMA sdAb No.7; 항-BCMA No.7) VHH: KLEESGGGSVQTGGSLRLTCAASGSIFSSGFMAWFRQAPGKEREFVSGISWRGDSTGYADSVKGRFTISRDNAKNTVDLQMNSLKPEDTAIYYCAARGTDTAYWGQGTQVTVSS",binds
2,"항-BCMA sdAb No.11 (VHH, Camel-derived single-domain antibody from a phage library; also called anti-BCMA sdAb No.11; 항-BCMA No.11) VHH: KLEESGGGSVQTGGSLRLTCAASGSISRLDNMGWFRQAPGKERELVAAINSKSNKTNYADSVKGRFTISRDNAKNTVDLQMNSLKPEDTAIYYCANWSFDKHRAYWGQGTQVTVSS",binds
3,"항-BCMA sdAb No.19 (VHH, Camel-derived single-domain antibody from a phage library; also called anti-BCMA sdAb No.19; 항-BCMA No.19) VHH: KLEESGGGSVQTGGSLRLTCAASGIIFSDDAIGWFRQAPGKERELVSLIDSKSSTYYADSVKGRFTISRDNAKNTVDLQMNSLKPEDTAIYYCNDHKRRQAMEYWGQGTQVTVSS",binds
